Test results reported in article PMC10266979.

Legend:
[1] = molecular target: neuraminidase (N1) of influenza A virus A/Hawaii/66/2019 (H1N1) (influenza A virus A/Hawaii/66/2019 (H1N1))
[2] = molecular target: neuraminidase (N1) of influenza A virus A/Idaho/07/2018 (H1N1) (influenza A virus A/Idaho/07/2018 (H1N1))
[3] = molecular target: neuraminidase (N1) of influenza A virus A/Illinois/45/2019 (H1N1) (influenza A virus A/Illinois/45/2019 (H1N1))
[4] = molecular target: neuraminidase (N1) of influenza A virus A/Michigan/45/2015 (H1N1) (influenza A virus A/Michigan/45/2015 (H1N1))
[5] = molecular target: neuraminidase (N1) of influenza A virus A/Puerto Rico/1934 (H1N1) (influenza A virus A/Puerto Rico/8/34 (H1N1)) (UniProt P03468)
[6] = molecular target: neuraminidase (N1) of influenza A virus A/Victoria/2570/2019 (H1N1) (influenza A virus A/Victoria/2570/2019 (H1N1))
[7] = molecular target: neuraminidase (N2) of influenza A virus A/Cambodia/E0826360/2020 (H3N2) (influenza A virus A/Cambodia/E0826360/2020 (H3N2))
[8] = molecular target: neuraminidase (N2) of influenza A virus A/Darwin/6/2021 (H3N2) (influenza A virus A/Darwin/6/2021 (H3N2))
[9] = molecular target: neuraminidase (N2) of influenza A virus A/HongKong/4801/2014 (H3N2) (influenza A virus A/HongKong/4801/2014 (H3N2))
[10] = molecular target: neuraminidase (N2) of influenza A virus A/Kansas/14/2017 (H3N2) (influenza A virus A/Kansas/14/2017 (H3N2))
[11] = molecular target: neuraminidase (N2) of influenza A virus A/Michigan/173/2020 (H3N2) (influenza A virus A/Michigan/173/2020 (H3N2))
[12] = molecular target: neuraminidase (N2) of influenza A virus A/SouthAustralia/34/2019 (H3N2) (influenza A virus A/SouthAustralia/34/2019 (H3N2))
[13] = molecular target: neuraminidase (N2) of influenza A virus A/Tasmania/503/2020 (H3N2) (influenza A virus A/Tasmania/503/2020 (H3N2))
[14] = molecular target: neuraminidase (N2) of influenza A virus A/Victoria/361/2011 (H3N2) (influenza A virus A/Victoria/361/2011 (H3N2))
[15] = molecular target: neuraminidase of influenza B virus B/Brisbane/35/2018 (Victoria) (influenza B virus B/Brisbane/35/2018 (Victoria))
[16] = molecular target: neuraminidase of influenza B virus B/Brisbane/60/2008 (Victoria) (influenza B virus B/Brisbane/60/2008 (Victoria))
[17] = molecular target: neuraminidase of influenza B virus B/Colorado/6/2017 (Victoria) (influenza B virus B/Colorado/6/2017 (Victoria))
[18] = molecular target: neuraminidase of influenza B virus B/Laos/0080/2016 (Victoria) (influenza B virus B/Laos/0080/2016 (Victoria))
[19] = molecular target: neuraminidase of influenza B virus B/Lee/1940 (Ancestral) (influenza B virus B/Lee/1940 (Ancestral)) (UniProt P03474)
[20] = molecular target: neuraminidase of influenza B virus B/Phuket/3073/2013 (Yamagata) (influenza B virus B/Phuket/3073/2013 (Yamagata))
[21] = molecular target: neuraminidase of influenza B virus B/Texas/6/2011 (Yamagata) (influenza B virus B/Texas/6/2011 (Yamagata))
[22] = molecular target: neuraminidase of influenza B virus B/Utah/9/2014 (Yamagata) (influenza B virus B/Utah/9/2014 (Yamagata))
[23] = molecular target: neuraminidase of influenza B virus B/Washington/02/2019 (Victoria) (influenza B virus B/Washington/02/2019 (Victoria))
[24] = molecular target: recombinant N2 NA A/Hong Kong/2671/2019 (N245 glycan) (influenza A virus H3N2 A/Hong Kong/2671/2019)
[25] = molecular target: recombinant N2 NA A/Hong Kong/2671/2019 (N245 glycan) (influenza A virus H3N2 A/Hong Kong/2671/2019); assay: SPR

Chain of UniProt P03474 (P03474 whole entry): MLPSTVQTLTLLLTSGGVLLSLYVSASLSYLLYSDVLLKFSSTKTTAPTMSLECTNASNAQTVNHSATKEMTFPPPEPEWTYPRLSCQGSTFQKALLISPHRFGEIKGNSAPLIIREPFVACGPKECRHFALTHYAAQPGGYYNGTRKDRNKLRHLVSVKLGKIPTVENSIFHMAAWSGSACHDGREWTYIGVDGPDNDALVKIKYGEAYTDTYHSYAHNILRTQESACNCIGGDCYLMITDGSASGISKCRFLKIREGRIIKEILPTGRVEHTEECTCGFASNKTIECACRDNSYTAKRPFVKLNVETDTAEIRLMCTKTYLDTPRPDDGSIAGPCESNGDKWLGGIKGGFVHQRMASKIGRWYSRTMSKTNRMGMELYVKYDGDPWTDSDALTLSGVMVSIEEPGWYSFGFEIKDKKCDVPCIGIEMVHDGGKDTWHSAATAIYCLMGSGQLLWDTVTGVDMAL

Substance | In vitro neutralization IC50; virus A/Hawaii/66/2019 (H1N1); mAb as IgG [1] | In vitro neutralization IC50; virus A/Idaho/07/2018 (H1N1); mAb as IgG [2] | In vitro neutralization IC50; virus A/Illinois/45/2019 (H1N1); mAb as IgG [3] | In vitro neutralization IC50; virus A/Michigan/45/2015 (H1N1); mAb as IgG [4] | In vitro neutralization IC50; virus A/Puerto Rico/1934 (H1N1); mAb as IgG [5] | In vitro neutralization IC50; virus A/Victoria/2570/2019 (H1N1); mAb as IgG [6] | In vitro neutralization IC50; virus A/Cambodia/E0826360/2020 (H3N2); mAb as IgG [7] | In vitro neutralization IC50; virus A/Darwin/6/2021 (H3N2); mAb as IgG [8] | In vitro neutralization IC50; virus A/HongKong/4801/2014 (H3N2); mAb as IgG [9] | In vitro neutralization IC50; virus A/Kansas/14/2017 (H3N2); mAb as IgG [10] | In vitro neutralization IC50; virus A/Michigan/173/2020 (H3N2); mAb as IgG [11] | In vitro neutralization IC50; virus A/SouthAustralia/34/2019 (H3N2); mAb as IgG [12] | In vitro neutralization IC50; virus A/Tasmania/503/2020 (H3N2); mAb as IgG [13] | In vitro neutralization IC50; virus A/Victoria/361/2011 (H3N2); mAb as IgG [14] | In vitro neutralization IC50; virus B/Brisbane/35/2018 (Victoria); mAb as IgG [15] | In vitro neutralization IC50; virus B/Brisbane/60/2008 (Victoria); mAb as IgG [16] | In vitro neutralization IC50; virus B/Colorado/6/2017 (Victoria); mAb as IgG [17] | In vitro neutralization IC50; virus B/Laos/0080/2016 (Victoria); mAb as IgG [18] | In vitro neutralization IC50; virus B/Phuket/3073/2013 (Yamagata); mAb as IgG [20] | In vitro neutralization IC50; virus B/Texas/6/2011 (Yamagata); mAb as IgG [21] | further results
FNI19 Fab | 0.021 µg/mL | 0.043 µg/mL | 0.039 µg/mL | 0.062 µg/mL | 0.012 µg/mL | 0.071 µg/mL | 1.47 µg/mL | 2.79 µg/mL | 0.122 µg/mL | 0.559 µg/mL | 1.77 µg/mL | 1.11 µg/mL | 1.18 µg/mL | 0.091 µg/mL | 0.02 µg/mL | 0.152 µg/mL | 1.17 µg/mL | 0.029 µg/mL | 0.222 µg/mL | 0.229 µg/mL | In vitro neutralization IC50; virus B/Lee/1940 (Ancestral); mAb as IgG [19]: 0.211 µg/mL; In vitro neutralization IC50; virus B/Utah/9/2014 (Yamagata); mAb as IgG [22]: 0.391 µg/mL; In vitro neutralization IC50; virus B/Washington/02/2019 (Victoria); mAb as IgG [23]: 0.063 µg/mL; In vitro neutralization IC50; virus A/HongKong/2671/2019 (H3N2); mAb as IgG [24]: 0.19 µg/mL; Kd [25]: 15.1 nM
1G01 Fab | 0.306 µg/mL | 0.293 µg/mL | 0.673 µg/mL | 0.57 µg/mL | 4.81 µg/mL | 15.1 µg/mL | 18.6 µg/mL | > 50 µg/mL | 0.058 µg/mL | 4.52 µg/mL | 6.2 µg/mL | 4.4 µg/mL | 26.1 µg/mL | 0.039 µg/mL | > 50 µg/mL | > 50 µg/mL | 1.63 µg/mL | 13.5 µg/mL | > 50 µg/mL | > 50 µg/mL | In vitro neutralization IC50; virus B/Utah/9/2014 (Yamagata); mAb as IgG [22]: > 50 µg/mL; In vitro neutralization IC50; virus B/Washington/02/2019 (Victoria); mAb as IgG [23]: 5.61 µg/mL; In vitro neutralization IC50; virus A/HongKong/2671/2019 (H3N2); mAb as IgG [24]: 21.5 µg/mL; Kd [25]: 375 nM
FNI9 Fab | 0.039 µg/mL | 0.079 µg/mL | 0.243 µg/mL | 0.151 µg/mL | 0.028 µg/mL | 0.168 µg/mL | 1.61 µg/mL | 1.13 µg/mL | 0.022 µg/mL | 0.284 µg/mL | 3.09 µg/mL | 0.76 µg/mL | 2.01 µg/mL | 0.082 µg/mL | 0.026 µg/mL | 1.16 µg/mL | 0.669 µg/mL | 0.047 µg/mL | 0.193 µg/mL | 0.104 µg/mL | In vitro neutralization IC50; virus B/Lee/1940 (Ancestral); mAb as IgG [19]: 0.051 µg/mL; In vitro neutralization IC50; virus B/Utah/9/2014 (Yamagata); mAb as IgG [22]: 0.245 µg/mL; In vitro neutralization IC50; virus B/Washington/02/2019 (Victoria); mAb as IgG [23]: 0.031 µg/mL; In vitro neutralization IC50; virus A/HongKong/2671/2019 (H3N2); mAb as IgG [24]: 0.073 µg/mL; Kd [25]: 16 nM
FNI17 Fab | 0.018 µg/mL | 0.022 µg/mL | 0.035 µg/mL | 0.073 µg/mL | 0.011 µg/mL | 0.036 µg/mL | 24.3 µg/mL | > 50 µg/mL | 0.208 µg/mL | 0.485 µg/mL | 33.1 µg/mL | 2.98 µg/mL | 5.07 µg/mL | 0.175 µg/mL | 0.024 µg/mL | 0.191 µg/mL | 0.042 µg/mL | 0.018 µg/mL | 0.117 µg/mL | 0.062 µg/mL | In vitro neutralization IC50; virus B/Lee/1940 (Ancestral); mAb as IgG [19]: 0.071 µg/mL; In vitro neutralization IC50; virus B/Utah/9/2014 (Yamagata); mAb as IgG [22]: 0.392 µg/mL; In vitro neutralization IC50; virus B/Washington/02/2019 (Victoria); mAb as IgG [23]: 0.019 µg/mL; In vitro neutralization IC50; virus A/HongKong/2671/2019 (H3N2); mAb as IgG [24]: 5.07 µg/mL; Kd [25]: 2100 nM
